Laboratory results published in patent US20240270874A1 (JIANGSU HENGRUI PHARMACEUTICALS, published 2024).

T1: cynomolgus monkey KLB on CHOK1-cynoKLB cells (cynomolgus monkey, UniProt A0A2K5WB58 1-1044)
T1 construct: whole, on cells; also called monkey KLB antigen
T1 sequence: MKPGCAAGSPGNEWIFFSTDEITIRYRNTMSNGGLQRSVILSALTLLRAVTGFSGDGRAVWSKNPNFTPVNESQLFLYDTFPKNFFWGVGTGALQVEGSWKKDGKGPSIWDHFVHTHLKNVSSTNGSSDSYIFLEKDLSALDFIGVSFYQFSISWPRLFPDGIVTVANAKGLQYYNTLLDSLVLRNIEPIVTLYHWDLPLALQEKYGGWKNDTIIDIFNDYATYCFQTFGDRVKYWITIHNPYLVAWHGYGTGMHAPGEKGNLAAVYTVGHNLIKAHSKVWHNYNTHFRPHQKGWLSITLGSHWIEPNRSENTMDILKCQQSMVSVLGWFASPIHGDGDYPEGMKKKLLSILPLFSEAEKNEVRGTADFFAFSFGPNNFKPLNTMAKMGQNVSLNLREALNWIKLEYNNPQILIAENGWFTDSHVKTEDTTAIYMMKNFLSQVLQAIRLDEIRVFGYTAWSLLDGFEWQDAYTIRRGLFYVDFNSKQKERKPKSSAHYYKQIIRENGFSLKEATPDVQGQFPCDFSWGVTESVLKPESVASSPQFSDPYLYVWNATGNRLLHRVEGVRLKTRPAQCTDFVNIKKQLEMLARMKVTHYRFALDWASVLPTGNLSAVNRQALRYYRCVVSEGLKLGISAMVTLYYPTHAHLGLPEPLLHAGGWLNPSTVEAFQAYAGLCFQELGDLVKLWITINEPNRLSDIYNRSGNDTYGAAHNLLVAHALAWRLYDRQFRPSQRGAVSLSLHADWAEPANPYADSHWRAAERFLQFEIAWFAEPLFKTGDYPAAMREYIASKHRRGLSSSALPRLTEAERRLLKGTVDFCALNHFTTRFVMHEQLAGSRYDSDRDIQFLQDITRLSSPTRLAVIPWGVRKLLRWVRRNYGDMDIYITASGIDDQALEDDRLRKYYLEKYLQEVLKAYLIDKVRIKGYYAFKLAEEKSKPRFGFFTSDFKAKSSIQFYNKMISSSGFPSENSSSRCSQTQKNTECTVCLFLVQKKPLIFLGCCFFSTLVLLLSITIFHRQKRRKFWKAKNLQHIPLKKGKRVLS

T2: hKLB (R&D, Cat. # 5889-KB) (human, UniProt Q86Z14 53-997, limits assumed)
T2 construct: bought soluble protein; also called KLB protein; human KLB
T2 sequence (looked up): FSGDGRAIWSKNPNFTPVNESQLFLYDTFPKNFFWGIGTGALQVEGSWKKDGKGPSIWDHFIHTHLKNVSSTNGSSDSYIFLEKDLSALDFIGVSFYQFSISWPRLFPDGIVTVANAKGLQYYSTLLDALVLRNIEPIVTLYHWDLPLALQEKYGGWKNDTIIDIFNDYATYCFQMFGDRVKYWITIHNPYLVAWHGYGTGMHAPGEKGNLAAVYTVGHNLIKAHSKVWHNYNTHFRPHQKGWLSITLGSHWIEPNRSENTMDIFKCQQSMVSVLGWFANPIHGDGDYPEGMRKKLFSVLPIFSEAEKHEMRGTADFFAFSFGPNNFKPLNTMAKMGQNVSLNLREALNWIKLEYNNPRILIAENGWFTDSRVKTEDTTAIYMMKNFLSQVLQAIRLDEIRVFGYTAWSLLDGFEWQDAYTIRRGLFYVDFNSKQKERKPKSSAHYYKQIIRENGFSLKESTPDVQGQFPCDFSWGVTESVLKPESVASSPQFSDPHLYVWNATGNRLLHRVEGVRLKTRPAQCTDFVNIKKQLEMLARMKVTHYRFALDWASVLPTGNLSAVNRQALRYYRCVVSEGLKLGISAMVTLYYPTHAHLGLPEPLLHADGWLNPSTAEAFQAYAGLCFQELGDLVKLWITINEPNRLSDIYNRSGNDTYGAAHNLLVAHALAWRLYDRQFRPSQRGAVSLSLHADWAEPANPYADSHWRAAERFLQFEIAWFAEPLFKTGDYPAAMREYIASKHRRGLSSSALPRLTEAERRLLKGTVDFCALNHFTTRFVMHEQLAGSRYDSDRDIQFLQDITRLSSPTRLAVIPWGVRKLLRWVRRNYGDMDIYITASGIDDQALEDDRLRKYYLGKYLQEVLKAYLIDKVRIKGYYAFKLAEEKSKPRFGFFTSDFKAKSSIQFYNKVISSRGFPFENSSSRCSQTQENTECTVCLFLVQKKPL

B1: hAb99-13 (antibody, human IgG1, kappa, L234A L235A, V domains shown)
VH: EVQLVQSGAEVKKPGASVKVSCKASGYTFTNYGINWVRQAPGQRLEWMGYIYIGNVDIEYNAKFKGRVTITSDTSASTAYMELSSLRSEDTAVYYCARGRGLGHFDVWGQGTTVTVSS
VL: DIQMTQSPSSLSASVGDRVTITCRASKSISKFLAWFQQKPGKTNKLLIYSGSTLQSGVPSRFSGSGSGTDFTLTISSLQPEDFATYYCQQHNEYPWTFGGGTKVEIKR
notes: human IgG1 (L234A, L235A) / kappa
B2: hAb18-8 (antibody, human IgG1, kappa, L234A L235A, V domains shown)
VH: EVQLVQSGAEVKKPGASVKVSCKASGYTFTDYAMHWVRQAPGQRLEWMGVISTYSGTTNYNQNFKGRVTITVDKSASTAYMELSSLRSEDTAVYYCARSGPLDYWGQGTTVTVSS
VL: ENVLTQSPDFQSVTPKEKVTITCRATSSVSSSYLHWYQQKPDQSPKLWIYSTSQLASGVPSRFSGSGSGTDYTLTINSLEAEDAATYYCQQYSGYPLTFGQGTKLEIKR
notes: as for B1
B3: hAb-23 (antibody, human IgG1, kappa, L234A L235A, V domains shown)
VH: QVQLVQSGAEVKKPGSSVKVSCKASGGTFSSYAISWVRQAPGQGLEWMGGIIPIFGTANYAQKFQGRVTITADESTSTAYMELSSLRSEDTAVYYCARELVSYYYGMDVWGQGTMVTVSS
VL: not shown
notes: from a human natural phage library; human IgG1 (L234A, L235A) / kappa; also called fully human antibody hAb-23

Assays:
[1] = biological target: T1, cynomolgus monkey KLB on CHOK1-cynoKLB …; assay: flow cytometry on CHOK1-cynoKLB cells
Description: The binding ability of the antibodies for CHOK1 cell strains CHOK1-hKLB and CHOK1-cynoKLB overexpressing human KLB and monkey KLB (see Example 1 for specific preparation procedure), respectively, was detected by flow cytometry. The specific procedure was as follows: the above cells were cultured in 10% FBS-containing IMDM medium and incubated in an incubator at 37° C. and 5% CO₂ for 2 days. The cells were then added to a cell plate at 1×10⁵ cells per well, centrifuged at 300 g for 5 min, and then washed once with 1% BSA. The antibody diluted in gradient was added to the cell plate at 100 μL per well, and the mixture was incubated at 4° C. for 1 h and washed once with 1% BSA. The diluted (1:400) APC-goat anti-human IgG Fc fluorescent secondary antibody was added at 100 μL per well, and the resulting mixture was incubated at 4° C. for 1 h. The plate was washed three times with 1% BSA, PBS was added at 100 μL per well, and the plate was read.

[2] = biological target: T2, hKLB (R&D, Cat. # 5889-KB); assay: BLI (Octet HTX) competition; KLB+antibody premix on SA sensor; competitor: immobilised Bio-FGF19
Description: Bio-FGF21/Bio-FGF19 (obtained by subjecting FGF21 and FGF19 to Biotin labeling with a Biotin Labeling Kit-NH2 (available from DOJINDO Molecular technologies Inc., LK03), wherein FGF21 is set forth in SEQ ID NO: 76 and FGF19 is set forth in SEQ ID NO: 77) was immobilized to an SA sensor (incubation for 80 s) at a concentration of 2 μg/mL, and the sensor was then transferred to a sample well containing KLB (R&D, 5889-KB-1 mg) or containing KLB+antibody premix (pre-incubation for at least 15 min) for 180 s of binding. The reaction signals were detected in real time using the ForteBio OCTET HTX instrument to obtain a binding curve.

Row | Binder | EC50 [1] [nM] | binding signal of KLB to Bio-FGF19, % of KLB alone [2] [%]
1 | B1 | 0.27 | 99
2 | B2 | 1.9 | 101
3 | B3 | 0.13 | 99
